Results reported in patent publication US20160264674A1 (ADURO BIOTECH HOLDINGS EUROPE B V, published 2016).
Substitutions are numbered along the chain they refer to. Numbers in names are those of the source. Read-outs that look alike come from different tables or passages of the source. One block for each binder: values may come before it.

Assays:
[1] = molecular target: T1, FLAG-tagged human APRIL (human, UniProt O75888 105-250, limits assumed); test: FLAG-APRIL ELISA after 10 min at 65 °C, antibody at 0.316 µg/ml
T1 construct: also called FLAG-tagged APRIL; FLAG-APRIL; not shown: FLAG tag
T1 sequence (looked up): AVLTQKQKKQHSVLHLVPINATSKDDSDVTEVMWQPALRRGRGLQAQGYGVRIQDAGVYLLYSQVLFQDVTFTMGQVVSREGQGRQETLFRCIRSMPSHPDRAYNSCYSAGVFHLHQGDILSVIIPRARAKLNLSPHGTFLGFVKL
Method: (§1) The plasmids encoding the VH and VL constructs were mixed in a 1:3 ratio (4 μg in total) and transiently expressed by transfection into HEK293T human embryonic kidney cells (HEK293T/17, ATCC-CRL-11268), using Lipofectamine 2000 transfection reagent (Invitrogen) following the manufacturer's instructions. Cell supernatants were harvested after 5 days and tested for expression of antibody and binding to APRIL using an enzyme-linked immuno assay (ELISA). In these ELISAs, all incubation steps were followed by a wash step with PBST (PBS with 0.01% Tween 20). Maxisorb 96-wells plates (Nunc) were coated with 0.5 μg/ml anti-FLAG (Sigma) or anti-IgG4 (Jackson laboratories) and incubated overnight at 4° C. Subsequently the anti-FLAG coated 96-wells plates were incubated with FLAG-tagged human APRIL for 1 hour at room temperature. Next, supernatants and dilutions thereof were incubated for 1 hour, which was followed by an incubation of 1 hour with mouse anti-human IgG HRP-conjugate (Southern Biotechnology).
(§2) To determine the effect of humanization on the stability of the antibodies, humanized antibodies were exposed to a range of temperatures for 10 minutes. Purified antibodies were diluted to 3.16 μg/ml and dilutions thereof in PBS. Next, these solutions were exposed to 65° C. or 70° C. and residual binding after heat treatment of the antibodies was measured using the FLAG-tagged APRIL ELISA assay as described before (see Table 6).
(§3) In addition, the stability of the substituted humanized antibodies was improved as determined using thermostability studies as described in Example 3 (see Table 9).

[2] = molecular target: T1, FLAG-tagged human APRIL; test: FLAG-APRIL ELISA after 10 min at 65 °C, antibody at 1 µg/ml
Method: as §1, §2, §3

[3] = molecular target: T1, FLAG-tagged human APRIL; test: FLAG-APRIL ELISA after 10 min at 70 °C, antibody at 1 µg/ml
[4] = molecular target: T1, FLAG-tagged human APRIL; test: competition ELISA: antibody premixed with FLAG-tagged APRIL, added to coated Fc-BCMA, anti-FLAG HRP
Method: Again, plasmids encoding the VH and VL constructs were mixed in a 1:3 ratio (32 μg) and transiently expressed by transfection into (8*10⁶) HEK293T human embryonic kidney cells (HEK293T), using Lipofectamine 2000 transfection reagent (Invitrogen) according to the manufacturer's instructions. Supernatants were harvested (10 ml) and antibodies were purified using MabSelect Sure Protein A resin according to the manufacturer's instructions (GE Healthcare). Buffer was exchanged for PBS using Zeba desalting columns (Thermo Scientific). The concentration of purified antibodies was determined based on OD280 (Nanodrop ND-1000). The binding of the purified antibodies to APRIL was established using the above described APRIL ELISA. The blocking capability of the humanized antibodies with BCMA and TACI receptors, was tested in a competition ELISA. In these ELISAs, all incubation steps were followed by a wash step with PBST (PBS with 0.01% Tween 20). Maxisorb 96-wells plates (Nunc) were coated with 0.5 μg/ml Fc-BCMA (R&D Systems) or Fc-TACI (R&D Systems) and incubated overnight at 4° C. […] Reactions were stopped with 100 μl 0.5 M H2504 and absorbances were measured at 450 and 620 nm. Calculated EC₅₀ and IC₅₀ representing the concentration at which 50% of the total binding signal or blocking is observed are represented in Table 5. […]

[5] = molecular target: T1, FLAG-tagged human APRIL; test: ELISA: FLAG-tagged human APRIL captured on anti-FLAG plate, purified antibody titrated
[6] = molecular target: T1, FLAG-tagged human APRIL; test: competition ELISA: antibody premixed with FLAG-tagged APRIL, added to coated Fc-BCMA, anti-FLAG HRP; remark: listed apart in the source
Method: (§4) A subset of humanized antibodies described above was selected for further analyses. Again, plasmids encoding the VH and VL constructs were mixed in a 1:3 ratio (32 μg) and transiently expressed by transfection into (8*10⁶) HEK293T human embryonic kidney cells (HEK293T), using Lipofectamine 2000 transfection reagent (Invitrogen) according to the manufacturer's instructions. Supernatants were harvested (10 ml) and antibodies were purified using MabSelect Sure Protein A resin according to the manufacturer's instructions (GE Healthcare). Buffer was exchanged for PBS using Zeba desalting columns (Thermo Scientific). The concentration of purified antibodies was determined based on OD280 (Nanodrop ND-1000). The binding of the purified antibodies to APRIL was established using the above described APRIL ELISA. The blocking capability of the humanized antibodies with BCMA and TACI receptors, was tested in a competition ELISA. In these ELISAs, all incubation steps were followed by a wash step with PBST (PBS with 0.01% Tween 20). Maxisorb 96-wells plates (Nunc) were coated with 0.5 μg/ml Fc-BCMA (R&D Systems) or Fc-TACI (R&D Systems) and incubated overnight at 4° C. Next, humanized antibodies and dilutions thereof were incubated, premixed with FLAG-tagged APRIL, for 1 hour, which was followed by an incubation of 1 hour with anti-FLAG HRP-conjugate (Sigma). Immunoreactivity was visualized with 100 μl TMB Stabilized Chromagen (Invitrogen). Reactions were stopped with 100 μl 0.5 M H2504 and absorbances were measured at 450 and 620 nm. Calculated EC₅₀ and IC₅₀ representing the concentration at which 50% of the total binding signal or blocking is observed are represented in Table 5.
The antibodies were tested for binding, blockade, and stability as described before.

[7] = molecular target: T1, FLAG-tagged human APRIL; test: FLAG-APRIL ELISA after 10 min at 70 °C, antibody at 0.316 µg/ml
[8] = molecular target: T1, FLAG-tagged human APRIL; test: ELISA: FLAG-tagged human APRIL captured on anti-FLAG plate, purified antibody titrated; remark: listed apart in the source
[9] = molecular target: T1, FLAG-tagged human APRIL; test: FLAG-APRIL ELISA after 10 min at 70 °C, antibody at 3.16 µg/ml
[10] = molecular target: T1, FLAG-tagged human APRIL; test: FLAG-APRIL ELISA after 10 min at 65 °C, antibody at 3.16 µg/ml
Method: as §1, §2, §3

[11] = molecular target: T1, FLAG-tagged human APRIL; test: competition ELISA: antibody premixed with FLAG-tagged APRIL, added to coated Fc-BCMA, anti-FLAG HRP; remark: listed apart in the source
Method: A subset of humanized antibodies described above was selected for further analyses. Again, plasmids encoding the VH and VL constructs were mixed in a 1:3 ratio (32 μg) and transiently expressed by transfection into (8*10⁶) HEK293T human embryonic kidney cells (HEK293T), using Lipofectamine 2000 transfection reagent (Invitrogen) according to the manufacturer's instructions. Supernatants were harvested (10 ml) and antibodies were purified using MabSelect Sure Protein A resin according to the manufacturer's instructions (GE Healthcare). Buffer was exchanged for PBS using Zeba desalting columns (Thermo Scientific). The concentration of purified antibodies was determined based on OD280 (Nanodrop ND-1000). The binding of the purified antibodies to APRIL was established using the above described APRIL ELISA. The blocking capability of the humanized antibodies with BCMA and TACI receptors, was tested in a competition ELISA. In these ELISAs, all incubation steps were followed by a wash step with PBST (PBS with 0.01% Tween 20). […] Reactions were stopped with 100 μl 0.5 M H2504 and absorbances were measured at 450 and 620 nm. Calculated EC₅₀ and IC₅₀ representing the concentration at which 50% of the total binding signal or blocking is observed are represented in Table 5.

[12] = molecular target: T1, FLAG-tagged human APRIL; test: FLAG-APRIL ELISA after 10 min at 65 °C, antibody at 0.316 µg/ml; remark: listed apart in the source
Method: as §1, §2

[13] = molecular target: T1, FLAG-tagged human APRIL; test: FLAG-APRIL ELISA after 10 min at 70 °C, antibody at 3.16 µg/ml; remark: listed apart in the source
Method: as §1, §2

[14] = molecular target: T1, FLAG-tagged human APRIL; test: FLAG-APRIL ELISA after 10 min at 70 °C, antibody at 0.316 µg/ml; remark: listed apart in the source
Method: as §1, §2

[15] = molecular target: T1, FLAG-tagged human APRIL; test: FLAG-APRIL ELISA after 10 min at 65 °C, antibody at 3.16 µg/ml; remark: listed apart in the source
Method: as §1, §2

[16] = molecular target: T1, FLAG-tagged human APRIL; test: FLAG-APRIL ELISA after 10 min at 70 °C, antibody at 1 µg/ml; remark: listed apart in the source
Method: as §1, §2

[17] = molecular target: T1, FLAG-tagged human APRIL; test: ELISA: FLAG-tagged human APRIL captured on anti-FLAG plate, purified antibody titrated; remark: listed apart in the source
Method: as §1
as §4, with “(Sigma).” for “(Sigma). Immunoreactivity was visualized with 100 μl TMB Stabilized Chromagen (Invitrogen). Reactions were stopped with 100 μl 0.5 M H2504 and absorbances were measured at 450 and 620 nm. Calculated EC₅₀ and IC₅₀ representing the concentration at which 50% of the total binding signal or blocking is observed are represented in Table 5.”

[18] = molecular target: T1, FLAG-tagged human APRIL; test: FLAG-APRIL ELISA after 10 min at 65 °C, antibody at 1 µg/ml; remark: listed apart in the source
Method: as §1, §2

% residual binding after heat treatment (room temperature = 100%) [1]: 71%
% residual binding after heat treatment (room temperature = 100%) [2]: 46.1%
% residual binding after heat treatment (room temperature = 100%) [3]: 38.3%
IC50 [4]: 2.63 nM
EC50 [5]: 1.29 nM
IC50 [6]: 2.63 nM
% residual binding after heat treatment (room temperature = 100%) [7]: 63%
EC50 [8]: 1.29 nM
% residual binding after heat treatment (room temperature = 100%) [9]: 38%
% residual binding after heat treatment (room temperature = 100%) [10]: 59.9%
B1: VH14_1.VL15 (antibody, human IgG4, V domains shown)
VH: QVQLVQSGAEVKKPGASVKVSCKASGYTFTSYVMHWVRQAPGQGLEWMGYINPYNDAPKYNEKFKGRVTMTSDTSASTAYMELSSLRSDDTAVYYCARGLGYALYYAMDYWGQGTTVTVSS
VL: DIVMTQSPSTLSASVGDRVTITCKASQNVGNNVAWYQQKPGKAPKLLISSASNRDSGVPSRFSGSGSGTEFTLTISSLQPDDFATYFCQQYNIYPFTFGQGTKLEIK
notes: VH14 with R72S; rest is human IgG4 (S241P, Kabat) and human kappa; also called 14_1.15; antibody 14_1.15

IC50 [11]: 4.3 nM
% residual binding after heat treatment (room temperature = 100%) [12]: 74.6%
% residual binding after heat treatment (room temperature = 100%) [13]: 59.1%
% residual binding after heat treatment (room temperature = 100%) [14]: 82%
% residual binding after heat treatment (room temperature = 100%) [15]: 63.1%
% residual binding after heat treatment (room temperature = 100%) [16]: 62.4%
EC50 [17]: 121 nM
% residual binding after heat treatment (room temperature = 100%) [18]: 55.1%
B2: VH11.VL15 (antibody, human IgG4 S228P, kappa, V domains shown)
VH: B1 VH with G44R, M70I, S72R, D89E
VL: DIVMTQSPSTLSASVGDRVTITCKASQNVGNNVAWYQQKPGKAPKLLISSASNRDSGVPSRFSGSGSGTEFTLTISSLQPDDFATYFCQQYNIYPFTFGQGTKLEIKR
notes: Humanized IgG4 (S241P, Kabat) with human kappa, from HEK293T; also called 11.15

IC50 [4]: 0.46 nM
% residual binding after heat treatment (room temperature = 100%) [12]: 13.7%
EC50 [5]: 0.16 nM
IC50 [6]: 0.46 nM
EC50 [8]: 0.16 nM
% residual binding after heat treatment (room temperature = 100%) [13]: 6.7%
% residual binding after heat treatment (room temperature = 100%) [14]: 11.2%
% residual binding after heat treatment (room temperature = 100%) [15]: 27.1%
% residual binding after heat treatment (room temperature = 100%) [16]: 4.9%
% residual binding after heat treatment (room temperature = 100%) [18]: 8.4%
B3: hAPRIL.01A (antibody, mouse IgG1, kappa, V domains shown)
VH: EVQLQQSGPELVKPGASVKMSCKASGYTFTSYVMHWVKQKPGQGLEWIGYINPYNDAPKYNEKFKGKATVTSDKSSGTAYMELSSLTSEDSAVYYCARGLGYALYYAMDYWGQGTSVTVSS
VL: DIVMTQSQKFKSTSVGDRVSVTCKASQNVGNNVAWYQQKAGQSPKALISSASNRDSGVPDRFTGSGSGTDFTLTISNVQSEDLADYFCQQYNIYPFTFGSGTKLEIKR
notes: Mouse antibody; also called mouse hAPRIL.01A antibody
